Measurements reported in patent US20070212363A1 (US Dept. of Health and Human Services, published 2007).

Key:
Test in all cases: cell-based or functional assay
[1] = biological target: T1, HIV-1 JR-FL envelope glycoprotein (Env) (HIV-1 strain JR-FL)
[2] = biological target: HIV-1 AD8 envelope glycoprotein (Env) (HIV-1 strain AD8)
[3] = biological target: HIV-1 IIIB envelope glycoprotein (Env) (HIV-1 strain IIIB)
[4] = biological target: T1, HIV-1 JR-FL envelope glycoprotein (Env); remark: listed apart in the source
[5] = biological target: HIV-1 AD8 envelope glycoprotein (Env) (HIV-1 strain AD8); remark: listed apart in the source
[6] = biological target: HIV-1 IIIB envelope glycoprotein (Env) (HIV-1 strain IIIB); remark: listed apart in the source

B1: scFv m9 (scFv)
scFv: VLTQSPGTLSLSAGERATLSCRASQSVSSGSLAWYQQKPGQAPRLLIYGASTRATGIPDRFSGSGSGTDFTLTIGRLEPEDLAVYYCQQYGTSPYTFGQGTKLEIKRTGGGGSGGGGSGGGGSVQLLEQSGAEVKKPGSSVQVSCKAFGGTFSMYGFNWVRQAPGHGLEWMGGIIPIFGTTNYAQKFRGRVTFTADQATSTAYMELTNLRSDDTAVYYCARDFGPDWEGGDSYDGSGRGFFDFWGQGTLVNVSS
percentage of maximal infection, U87.CD4.CCR5.CXCR4 cells, 100 µg/mL antibody [1]: 20%
percentage of maximal infection, U87.CD4.CCR5.CXCR4 cells, 100 µg/mL antibody [2]: 6.1%
percentage of maximal infection, U87.CD4.CCR5.CXCR4 cells, 100 µg/mL antibody [3]: 12%
Neutralizing activity (percentage) at 100 µg/mL [4]: 90%
Neutralizing activity (percentage) at 100 µg/mL [5]: 100%
Neutralizing activity (percentage) at 100 µg/mL [6]: 100%
